Drawing on publication PMC12152508, “Altering 15‐Lipoxygenases to 18‐Lipoxygenases and Their Application to the Production of 5,18‐Dihydroxyeicosapentaenoic Acids” (Biotechnology and Bioengineering, 2025), this text covers Km, kcat and kcat/Km for eight proteins.

Substrate in data set [1]: CC/C=C\C/C=C\C/C=C\C/C=C\C/C=C\CCCC(=O)O
Put plainly: purified protein. The settings on record: 50 mM HEPES pH 8.5, 20°C. The class given is biochemical, Archangium violaceum.

Substrate in data set [2]: CC/C=C\C/C=C\C/C=C\C/C=C\C/C=C\CCCC(=O)O
Put plainly: purified protein. The class given is biochemical, Sorangium cellulosum. The settings on record: 50 mM HEPES pH 8.0, 20°C.

B1: 15S-LOX from Archangium violaceum (Archangium violaceum Cb vi76; L429W/L430M/L575M) (protein)
chain: MRSIPSLPQNDSPAQQELRLATLTQERQVYAYNFDSRLSPLGIAAQVPRQDNFSFVWLDGVATTGLQLLGNVLAIGAKLFDNGEAIQNDAGLSELELRRVEGTYRELTDGFSRLSDRTSRLHQAPRSPAVTLIADVIERPRTLLKAAGQKLEETAGVAIVSELATQAALDAPAIGQDILDLIDTLLKKLLSEAGDLFLKYLGLYGKAASLDNYTAQFSLLQPPSVASNYETDLIFARMRLAGPNPALLQGIAALPEKFPVTDAQYQSVMGSQDTLARAGQEGRLYLLDYAVFQGIPTGQTSGGQKYIEAPLALFAVPAANQADRKLRAVAIQCSQTPGRSNPIFTPADGTSWSLARLHVQVADGNYHELIAHLGLTHLILEEFTLSTHRQLAPQHPLYLLLTPHFQGTLAINNAAETSLIAPGGPVDQWMAGEIKASTQVSIQAVANQSINQSFLPRALAARGVDDASKLPDYPYRDDALLLWNDIRAWVSDYLAIYYNDDAAVRSDYELQAWVTELASPDAGKLKDVTEGGGGIQTFEYLVDLTTYIIFTASVQHAAVNFPQRTVMSYTPALPMAAYAPAPTSVEELPPSTELTHLPPLQMAFLQQAVTFGLGNVYFTRLGGYDTYLREPWFADARVWPALEVFQKRLRATEREIGQRNLSRIPYETLLPTAIPQSINI
notes: expressed from pET-28a(+) in E. coli C2566, His-Trap purified
One may read the Km as the substrate concentration at which the rate is half of its maximum. Broadly, the kcat is the number of substrate molecules converted per active site and unit of time at saturation. As usually defined, the kcat/Km is the turnover number divided by the Michaelis constant. In the case of B1, in “purified protein [1]” (products 15S- and 18S-HpEPEs), the Km turned out to be 221.3 µM, the kcat stood at 118 s⁻¹ and the kcat/Km was 530000 M⁻¹ s⁻¹.

B2: 15S-LOX from Archangium violaceum (Archangium violaceum Cb vi76; L429W) (protein)
chain: MRSIPSLPQNDSPAQQELRLATLTQERQVYAYNFDSRLSPLGIAAQVPRQDNFSFVWLDGVATTGLQLLGNVLAIGAKLFDNGEAIQNDAGLSELELRRVEGTYRELTDGFSRLSDRTSRLHQAPRSPAVTLIADVIERPRTLLKAAGQKLEETAGVAIVSELATQAALDAPAIGQDILDLIDTLLKKLLSEAGDLFLKYLGLYGKAASLDNYTAQFSLLQPPSVASNYETDLIFARMRLAGPNPALLQGIAALPEKFPVTDAQYQSVMGSQDTLARAGQEGRLYLLDYAVFQGIPTGQTSGGQKYIEAPLALFAVPAANQADRKLRAVAIQCSQTPGRSNPIFTPADGTSWSLARLHVQVADGNYHELIAHLGLTHLILEEFTLSTHRQLAPQHPLYLLLTPHFQGTLAINNAAETSLIAPGGPVDQWLAGEIKASTQVSIQAVANQSINQSFLPRALAARGVDDASKLPDYPYRDDALLLWNDIRAWVSDYLAIYYNDDAAVRSDYELQAWVTELASPDAGKLKDVTEGGGGIQTFEYLVDLTTYIIFTASVQHAAVNFPQRTVMSYTPALPLAAYAPAPTSVEELPPSTELTHLPPLQMAFLQQAVTFGLGNVYFTRLGGYDTYLREPWFADARVWPALEVFQKRLRATEREIGQRNLSRIPYETLLPTAIPQSINI
notes: as for B1
Take B2: in “purified protein [1]” (products 15S- and 18S-HpEPEs), the Km turned out to be 35.6 µM, the kcat was 51.8 s⁻¹ and the kcat/Km worked out at 1.45e+06 M⁻¹ s⁻¹.

B3: 15S-LOX from Archangium violaceum (Archangium violaceum Cb vi76; L429W/L430M) (protein)
chain: MRSIPSLPQNDSPAQQELRLATLTQERQVYAYNFDSRLSPLGIAAQVPRQDNFSFVWLDGVATTGLQLLGNVLAIGAKLFDNGEAIQNDAGLSELELRRVEGTYRELTDGFSRLSDRTSRLHQAPRSPAVTLIADVIERPRTLLKAAGQKLEETAGVAIVSELATQAALDAPAIGQDILDLIDTLLKKLLSEAGDLFLKYLGLYGKAASLDNYTAQFSLLQPPSVASNYETDLIFARMRLAGPNPALLQGIAALPEKFPVTDAQYQSVMGSQDTLARAGQEGRLYLLDYAVFQGIPTGQTSGGQKYIEAPLALFAVPAANQADRKLRAVAIQCSQTPGRSNPIFTPADGTSWSLARLHVQVADGNYHELIAHLGLTHLILEEFTLSTHRQLAPQHPLYLLLTPHFQGTLAINNAAETSLIAPGGPVDQWMAGEIKASTQVSIQAVANQSINQSFLPRALAARGVDDASKLPDYPYRDDALLLWNDIRAWVSDYLAIYYNDDAAVRSDYELQAWVTELASPDAGKLKDVTEGGGGIQTFEYLVDLTTYIIFTASVQHAAVNFPQRTVMSYTPALPLAAYAPAPTSVEELPPSTELTHLPPLQMAFLQQAVTFGLGNVYFTRLGGYDTYLREPWFADARVWPALEVFQKRLRATEREIGQRNLSRIPYETLLPTAIPQSINI
notes: as for B1
For B3, in the data set “purified protein [1]” (products 15S- and 18S-HpEPEs), the Km came to 57.2 µM, the kcat worked out at 48.7 s⁻¹ and the kcat/Km amounted to 850000 M⁻¹ s⁻¹.

B4: 15S-LOX from Archangium violaceum (Archangium violaceum Cb vi76) (protein)
chain: MRSIPSLPQNDSPAQQELRLATLTQERQVYAYNFDSRLSPLGIAAQVPRQDNFSFVWLDGVATTGLQLLGNVLAIGAKLFDNGEAIQNDAGLSELELRRVEGTYRELTDGFSRLSDRTSRLHQAPRSPAVTLIADVIERPRTLLKAAGQKLEETAGVAIVSELATQAALDAPAIGQDILDLIDTLLKKLLSEAGDLFLKYLGLYGKAASLDNYTAQFSLLQPPSVASNYETDLIFARMRLAGPNPALLQGIAALPEKFPVTDAQYQSVMGSQDTLARAGQEGRLYLLDYAVFQGIPTGQTSGGQKYIEAPLALFAVPAANQADRKLRAVAIQCSQTPGRSNPIFTPADGTSWSLARLHVQVADGNYHELIAHLGLTHLILEEFTLSTHRQLAPQHPLYLLLTPHFQGTLAINNAAETSLIAPGGPVDQLLAGEIKASTQVSIQAVANQSINQSFLPRALAARGVDDASKLPDYPYRDDALLLWNDIRAWVSDYLAIYYNDDAAVRSDYELQAWVTELASPDAGKLKDVTEGGGGIQTFEYLVDLTTYIIFTASVQHAAVNFPQRTVMSYTPALPLAAYAPAPTSVEELPPSTELTHLPPLQMAFLQQAVTFGLGNVYFTRLGGYDTYLREPWFADARVWPALEVFQKRLRATEREIGQRNLSRIPYETLLPTAIPQSINI
notes: as for B1
For B4, in “purified protein [1]” (product 15S-HpEPE), the Km is 40.7 µM, the kcat is 61.4 s⁻¹ and the catalytic efficiency (kcat/Km) is 1.51e+06 M⁻¹ s⁻¹.

B5: 15R-LOX from Sorangium cellulosum (Sorangium cellulosum) (protein)
chain: MSNPSLPQNDSPAEQQQRKSELARAQQTYVYDHDTRLSPLGVAQSVPNGQGFAPILVGSAALVILDLVGNVVAKASKLVGSDGSLRSPKGAPLDDATSARIQGVLHDLKQRHRELTLVLTPLHGEPERAPAPPPRAPAVALVEGVAQKFVTTAENRAMESVLGATNLSTKNVGDIIKSLLDTLLSAAGKLLLDLVGMYGQATSVYDYVSEFQTFRLPEIASVYQDDAIFAWMRVAGPNPLVLKRVASPGASFPVTDAQYRSVMGEGDSLASAGKEGRLYLADYKALSQLVPGTAPDQQKYVEAPLALFAVPAAGAPSRLLRPVAIQCAQAPGAASPIFTPSDGVAWEVAKLHVQVADGNFHELISHLGQTHLVLEAFAMATPRQLAPEHPVNVLLTPHFQGTLAINNAAEADLIAPGGPVDNLLAGTIASSTQLAVDAVLSYSVNQQFLPVALAQRGVDDPSTLPSYPYRDDATLLWGAIHTWVSRYLAVYYTSDADVLGDYELQHWIAELSSPSGCGLKDIGEDGAIRTVAYLADLLTHVIFTASAQHAAVNFPQSSLMSFTPALPLAAYAPAPSITAGLPPSEIFQHLPPLQQALLQINVMMLLGGVYYSRLGDYDRNIPGAYFTDARVREPLEAFQRELMEIEATIGKRNLQRFPYVVLLPSQIPQSINI
As for B5, in the data set “purified protein [2]” (product 15R-HpEPE), the Km came to 41.9 µM, the kcat worked out at 68 s⁻¹ and the kcat/Km worked out at 1.62e+06 M⁻¹ s⁻¹.

B6: 15R-LOX from Sorangium cellulosum (Sorangium cellulosum; L423W) (protein)
chain: MSNPSLPQNDSPAEQQQRKSELARAQQTYVYDHDTRLSPLGVAQSVPNGQGFAPILVGSAALVILDLVGNVVAKASKLVGSDGSLRSPKGAPLDDATSARIQGVLHDLKQRHRELTLVLTPLHGEPERAPAPPPRAPAVALVEGVAQKFVTTAENRAMESVLGATNLSTKNVGDIIKSLLDTLLSAAGKLLLDLVGMYGQATSVYDYVSEFQTFRLPEIASVYQDDAIFAWMRVAGPNPLVLKRVASPGASFPVTDAQYRSVMGEGDSLASAGKEGRLYLADYKALSQLVPGTAPDQQKYVEAPLALFAVPAAGAPSRLLRPVAIQCAQAPGAASPIFTPSDGVAWEVAKLHVQVADGNFHELISHLGQTHLVLEAFAMATPRQLAPEHPVNVLLTPHFQGTLAINNAAEADLIAPGGPVDNWLAGTIASSTQLAVDAVLSYSVNQQFLPVALAQRGVDDPSTLPSYPYRDDATLLWGAIHTWVSRYLAVYYTSDADVLGDYELQHWIAELSSPSGCGLKDIGEDGAIRTVAYLADLLTHVIFTASAQHAAVNFPQSSLMSFTPALPLAAYAPAPSITAGLPPSEIFQHLPPLQQALLQINVMMLLGGVYYSRLGDYDRNIPGAYFTDARVREPLEAFQRELMEIEATIGKRNLQRFPYVVLLPSQIPQSINI
notes: as for B1
Consider B6, for which, in the data set “purified protein [2]” (products 15R- and 18R-HpEPEs), the Km was found to be 69.8 µM, the kcat came to 105 s⁻¹ and the kcat/Km worked out at 1.5e+06 M⁻¹ s⁻¹.

B7: 15R-LOX from Sorangium cellulosum (Sorangium cellulosum; L423W/L424M/L568M) (protein)
chain: MSNPSLPQNDSPAEQQQRKSELARAQQTYVYDHDTRLSPLGVAQSVPNGQGFAPILVGSAALVILDLVGNVVAKASKLVGSDGSLRSPKGAPLDDATSARIQGVLHDLKQRHRELTLVLTPLHGEPERAPAPPPRAPAVALVEGVAQKFVTTAENRAMESVLGATNLSTKNVGDIIKSLLDTLLSAAGKLLLDLVGMYGQATSVYDYVSEFQTFRLPEIASVYQDDAIFAWMRVAGPNPLVLKRVASPGASFPVTDAQYRSVMGEGDSLASAGKEGRLYLADYKALSQLVPGTAPDQQKYVEAPLALFAVPAAGAPSRLLRPVAIQCAQAPGAASPIFTPSDGVAWEVAKLHVQVADGNFHELISHLGQTHLVLEAFAMATPRQLAPEHPVNVLLTPHFQGTLAINNAAEADLIAPGGPVDNWMAGTIASSTQLAVDAVLSYSVNQQFLPVALAQRGVDDPSTLPSYPYRDDATLLWGAIHTWVSRYLAVYYTSDADVLGDYELQHWIAELSSPSGCGLKDIGEDGAIRTVAYLADLLTHVIFTASAQHAAVNFPQSSLMSFTPALPMAAYAPAPSITAGLPPSEIFQHLPPLQQALLQINVMMLLGGVYYSRLGDYDRNIPGAYFTDARVREPLEAFQRELMEIEATIGKRNLQRFPYVVLLPSQIPQSINI
notes: as for B1
For the protein B7, in “purified protein [2]” (products 15R- and 18R-HpEPEs), the Km turned out to be 253.7 µM, the catalytic constant (kcat) came out at 90.8 s⁻¹ and the kcat/Km came out at 360000 M⁻¹ s⁻¹.

B8: 15R-LOX from Sorangium cellulosum (Sorangium cellulosum; L423W/L424M) (protein)
chain: MSNPSLPQNDSPAEQQQRKSELARAQQTYVYDHDTRLSPLGVAQSVPNGQGFAPILVGSAALVILDLVGNVVAKASKLVGSDGSLRSPKGAPLDDATSARIQGVLHDLKQRHRELTLVLTPLHGEPERAPAPPPRAPAVALVEGVAQKFVTTAENRAMESVLGATNLSTKNVGDIIKSLLDTLLSAAGKLLLDLVGMYGQATSVYDYVSEFQTFRLPEIASVYQDDAIFAWMRVAGPNPLVLKRVASPGASFPVTDAQYRSVMGEGDSLASAGKEGRLYLADYKALSQLVPGTAPDQQKYVEAPLALFAVPAAGAPSRLLRPVAIQCAQAPGAASPIFTPSDGVAWEVAKLHVQVADGNFHELISHLGQTHLVLEAFAMATPRQLAPEHPVNVLLTPHFQGTLAINNAAEADLIAPGGPVDNWMAGTIASSTQLAVDAVLSYSVNQQFLPVALAQRGVDDPSTLPSYPYRDDATLLWGAIHTWVSRYLAVYYTSDADVLGDYELQHWIAELSSPSGCGLKDIGEDGAIRTVAYLADLLTHVIFTASAQHAAVNFPQSSLMSFTPALPLAAYAPAPSITAGLPPSEIFQHLPPLQQALLQINVMMLLGGVYYSRLGDYDRNIPGAYFTDARVREPLEAFQRELMEIEATIGKRNLQRFPYVVLLPSQIPQSINI
notes: as for B1
With B8, in the data set “purified protein [2]” (products 15R- and 18R-HpEPEs), the Km was 43.3 µM, the kcat came to 22.7 s⁻¹ and the kcat/Km worked out at 520000 M⁻¹ s⁻¹.
